Data taken from PMC7527733.

Experiments:
[1] = biological target: Elizabethkingia anophelis strain AG1 CDC-like protein (CDCL) (Elizabethkingia anophelis strain AG1); experiment: SDS-agarose gel electrophoresis (SDS-AGE)
[2] = biological target: Elizabethkingia anophelis strain AG1 short CDC-like protein (CDCL^S) (Elizabethkingia anophelis strain AG1); experiment: […]) in 20 mM HEPES (pH 7), 150 mM NaCl, […] (55:45) […]

With “Elizabethkingia anophelis strain AG1 CDC-like protein (CDCL) (natural protein)” the stoichiometry N [1] was 2.
For “Elizabethkingia anophelis strain AG1 short CDC-like protein (CDCL^S) (natural protein)”, the stoichiometry N [2] was 28 monomers.
